B1: Codon optimised: Codon-optimised (humanised) apoaequorin coding sequence SEQ ID NO: 3 with HA1 epitope, in pcDNA3 expression plasmid (nucleic acid)
DNA: ATGAAGCTGACCCCCGACTTCGACAACCCCAAGTGGATCGGCCGCCACAAGCACATGTTCAACTTCCTGGACGTGAACCACAACGGCCGCATCAGCCTGGACGAGATGGTGTACAAGGCCAGCGACATCGTGATCAACAACCTGGGCGCCACCCCCGAGCAGGCCAAGCGCCACAAGGACGCCGTGGAGGCCTTCTTCGGCGGCGCCGGCATGAAGTACGGCGTGGAGACGGAGTGGCCCGAGTACATCGAGGGCTGGAAGCGCCTGGCCTCCGAGGAACTGAAGCGCTACAGCAAGAACCAGATCACCCTGATCCGCCTGTGGGGCGACGCCCTGTTCGACATCATCGACAAGGACCAGAACGGCGCCATCTCCCTGGATGAGTGGAAGGCCTACACCAAGTCCGTCGGCATCATCCAGTCCTCCGAGGACTGCGAGGAGACGTTCCGCGTGTGCGACATCGACGAGAGCGGCCAGCTGGACGTGGACGAGATGACCCGCCAGCACCTGGGCTTCTGGTACACCATGGACCCCGCCTGCGAGAAGCTGTACGGCGGCGCCGTGCCCTAA
modifications: HA1 epitope fused, in pcDNA3; humanised apoaequorin
B2: Wild type: Wild-type jellyfish apoaequorin gene SEQ ID NO: 2 with HA1 epitope in pcDNA3, used as control (nucleic acid, listed as Aequorea victoria)
DNA: ATGAAGCTTACATCAGACTTCGACAACCCAAGATGGATTGGACGACACAAGCATATGTTCAATTTCCTTGATGTCAACCACAATGGAAAAATCTCTCTTGACGAGATGGTCTACAAGGCATCTGATATTGTCATCAATAACCTTGGAGCAACACCTGAGCAAGCCAAACGACACAAAGATGCTGTAGAAGCCTTCTTCGGAGGAGCTGGAATGAAATATGGTGTGGAAACTGATTGGCCTGCATATATTGAAGGATGGAAAAAATTGGCTACTGATGAATTGGAGAAATACGCCAAAAACGAACCAACGCTCATCCGTATATGGGGTGATGCTTTGTTTGATATCGTTGACAAAGATCAAAATGGAGCCATTACACTGGATGAATGGAAAGCATACACCAAAGCTGCTGGTATCATCCAATCATCAGAAGATTGCGAGGAAACATTCAGAGTGTGCGATATTGATGAAAGTGGACAACTCGATGTTGATGAGATGACAAGACAACATTTAGGATTTTGGTACACCATGGATCCTGCTTGCGAAAAGCTCTACGGTGGAGCTGTCCCCTAA
modifications: HA1 epitope fused, in pcDNA3

Experiments:
[1] = tested on: HEK 293 cells; assay: Immunoblotting of HA-tagged aequorin expression (3F10 antibody, pixel quantification); type: cell-based; conditions: western blot against HA epitope; HEK 293 lysates 48 hours post transfection; ImageQuant pixel quantification
Method: Expression of recombinant protein was verified by immuoblotting using Anti-HA-Peroxidase, High Affinity (3F10) monoclonal antibody (Roche). This antibody recognizes the HA peptide sequence […] derived from the […] hemagglutinin protein (Kolodziej &Young, Methods Enzymol. 194:508-511, […]). HEK 293 cells were transiently transfected with the codon optimised and the wild type aequorin constructs. Cell lysates were prepared 48 hours post transfection, proteins (130 μg) separated by SDS-PAGE electrophoresis, transferred to nylon membrane and stained with a 1:500 dilution of 3F10 antibody. Protein expression was quantitated using pixel quantification in ImageQuant software (Molecular Dynamics) and indicated a 8-fold increase in expression of cythuAEQ over cytAEQ.

[2] = tested on: HEK293 cells; assay: Aequorin luminescence (calcium flux) after Ionomycin stimulation of transiently transfected cells; type: cell-based; conditions: for Peak Relative Light Units (RLU) following Ionomycin Stimulation: HEK293 cells transiently transfected, 48 hours post transfection; for fold increase in RLU relative to wild type aequorin: number in parenthesis; for fold increase in luminescent output (RLU) with the codon optimised aequorin: text summary over 1 and 2 μM CaCl2, Ionomycin stimulation, versus wild type
Method: CHOK1 and Phoenix (HEK293 derived) cells were grown in Ham's F12 and DMEM respectively. The medium was supplemented with10% foetal calf serum, 2 mM glutamine, penicillin and streptomycin 100 μg/ml.
Cells were seeded in Costar 6 well plates at a density of 5×10^5 18-24 hours prior to transfection. On the day of transfection the cells were 85-90% confluent. Plasmids, cytaeqHA1(9aa)pcDNA3#2 and hucytaeqHA(9aa)pcDNA3#20, were transfected into the cells using Lipofectamine Plus reagents. A co-transfection with EGFP (Clontech) allowed transfection variation between wells to be ascertained. A modification to the standard protocol from Life Technologies was used. In summary, 2 μg of DNA (1 μg of each for co-transfections) diluted in 400 μl of HamsF12+12 μl lipofectamnine plus reagent was incubated for 15 minutes at room temperature. 8 μl of Lipofectamine reagent +400 μl of HamsF12 medium was also incubated for 15 minutes at room temperature. The two mixtures were combined and incubated for a further 15 minutes before being aspirated onto the cells containing 1.6 mls of Ham's F12 medium. The plates were incubated for 3 hours at 37° C. 5% CO2. The transfection reagents were replaced with Ham's F12 complete medium and the cells incubated for 24 hours. At 24 hours the cells were transferred to 96 well plates. 48 hours post transfection the 96 wells were rinsed in PBS and replaced with 50 μl of DMEM (without phenol red) containing 1% heat inactivated FCS and 2.5 μm hcp coelenterazine. The cells were incubated at 37° C. 5% CO2 for 3 hours. The wells were aspirated of the coelenterazine mix and replaced with 175 μl of PBS containing either 1 μM or 2 μM CaCl2. The plates were transferred to Tropix TR717 luminometer for stimulation. 2 μM of ionomycin (25 μl), a calcium ionophore, was injected into the wells and the reaction recorded over 60 seconds. 1:
Numbers in parenthesis represent the fold increase in RLU relative to wild type aequorin.

Molecule | fold increase in expression over non-humanised (wild type) aequorin [1] | Peak Relative Light Units (RLU) following Ionomycin Stimulation ([2]; 1 μM CaCl2) | fold increase in RLU relative to wild type aequorin ([2]; 1 μM CaCl2) | Peak Relative Light Units (RLU) following Ionomycin Stimulation ([2]; 2 μM CaCl2) | fold increase in RLU relative to wild type aequorin ([2]; 2 μM CaCl2) | fold increase in luminescent output (RLU) with the codon optimised aequorin ([2]; listed as codon optimised aequorin) | fold increase in luminescent output (RLU) with the codon optimised aequorin ([2]; listed as codon-optimised sequence)
B1 | ~8 fold | 18008 RLU | 19 fold | 15561 RLU | 21 fold | 19-21 fold | > 20 fold
B2 | – | 944 RLU | – | 734 RLU | – | – | –
